Reference: publication PMC4534575, “The RNA Helicase DHX34 Activates NMD by Promoting a Transition from the Surveillance to the Decay-Inducing Complex” (Cell Reports, 2014)

Molecular target: T1, T7-DHX34 (wild-type) (human, UniProt Q14147 1-1143)
T1 construct: Human DHX34, wild type; also called T7-tagged DHX34; shRNA-resistant (R) wild-type T7-DHX34; source: HEK293T, transiently transfected, in lysate; also purified on T7 agarose beads
T1 sequence (looked up): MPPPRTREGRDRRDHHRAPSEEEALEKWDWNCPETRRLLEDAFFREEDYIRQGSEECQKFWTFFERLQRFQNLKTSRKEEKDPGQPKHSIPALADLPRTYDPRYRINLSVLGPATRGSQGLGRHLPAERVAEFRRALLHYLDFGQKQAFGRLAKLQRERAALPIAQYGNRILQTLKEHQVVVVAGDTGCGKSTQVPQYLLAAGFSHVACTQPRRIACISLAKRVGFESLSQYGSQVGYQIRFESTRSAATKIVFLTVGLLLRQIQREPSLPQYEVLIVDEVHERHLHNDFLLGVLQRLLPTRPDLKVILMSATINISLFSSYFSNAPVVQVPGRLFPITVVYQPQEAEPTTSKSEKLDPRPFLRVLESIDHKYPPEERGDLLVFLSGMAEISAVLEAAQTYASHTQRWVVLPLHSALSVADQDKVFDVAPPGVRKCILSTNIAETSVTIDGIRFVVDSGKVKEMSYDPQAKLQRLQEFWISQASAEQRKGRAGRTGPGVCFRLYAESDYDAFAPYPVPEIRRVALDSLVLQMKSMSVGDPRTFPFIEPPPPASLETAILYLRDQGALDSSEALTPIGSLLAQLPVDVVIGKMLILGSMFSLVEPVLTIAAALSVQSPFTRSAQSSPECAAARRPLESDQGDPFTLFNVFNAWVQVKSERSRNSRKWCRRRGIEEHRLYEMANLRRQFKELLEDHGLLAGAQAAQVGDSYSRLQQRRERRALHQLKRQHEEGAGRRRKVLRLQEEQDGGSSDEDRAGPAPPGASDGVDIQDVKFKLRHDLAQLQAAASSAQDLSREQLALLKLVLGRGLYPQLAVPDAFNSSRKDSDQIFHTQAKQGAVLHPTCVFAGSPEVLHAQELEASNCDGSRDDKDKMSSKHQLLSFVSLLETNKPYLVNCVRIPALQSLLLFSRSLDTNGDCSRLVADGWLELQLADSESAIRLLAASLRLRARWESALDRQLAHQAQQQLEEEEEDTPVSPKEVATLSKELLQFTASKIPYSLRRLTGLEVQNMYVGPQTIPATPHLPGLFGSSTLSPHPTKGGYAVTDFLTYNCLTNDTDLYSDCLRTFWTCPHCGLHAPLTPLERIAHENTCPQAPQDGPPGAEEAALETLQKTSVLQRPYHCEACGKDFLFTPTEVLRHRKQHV
Assay: pull-down; purified T7-DHX34 (wild-type or deletion constructs) on T7 agarose beads incubated with recombinant UPF1, UPF2, UPF3b or purified full-length FLAG-UPF1 in buffer D for 2 hr at 4°C
Conditions: both partners purified

binding result: binds
B1: FLAG-UPF1 (wild-type) (natural protein, human, UniProt Q92900-2 1-1118, looked up)
chain: MSVEAYGPSSQTLTFLDTEEAELLGADTQGSEFEFTDFTLPSQTQTPPGGPGGPGGGGAGGPGGAGAGAAAGQLDAQVGPEGILQNGAVDDSVAKTSQLLAELNFEEDEEDTYYTKDLPIHACSYCGIHDPACVVYCNTSKKWFCNGRGNTSGSHIVNHLVRAKCKEVTLHKDGPLGETVLECYNCGCRNVFLLGFIPAKADSVVVLLCRQPCASQSSLKDINWDSSQWQPLIQDRCFLSWLVKIPSEQEQLRARQITAQQINKLEELWKENPSATLEDLEKPGVDEEPQHVLLRYEDAYQYQNIFGPLVKLEADYDKKLKESQTQDNITVRWDLGLNKKRIAYFTLPKTDSDMRLMQGDEICLRYKGDLAPLWKGIGHVIKVPDNYGDEIAIELRSSVGAPVEVTHNFQVDFVWKSTSFDRMQSALKTFAVDETSVSGYIYHKLLGHEVEDVIIKCQLPKRFTAQGLPDLNHSQVYAVKTVLQRPLSLIQGPPGTGKTVTSATIVYHLARQGNGPVLVCAPSNIAVDQLTEKIHQTGLKVVRLCAKSREAIDSPVSFLALHNQIRNMDSMPELQKLQQLKDETGELSSADEKRYRALKRTAERELLMNADVICCTCVGAGDPRLAKMQFRSILIDESTQATEPECMVPVVLGAKQLILVGDHCQLGPVVMCKKAAKAGLSQSLFERLVVLGIRPIRLQVQYRMHPALSAFPSNIFYEGSLQNGVTAADRVKKGFDFQWPQPDKPMFFYVTQGQEEIASSGTSYLNRTEAANVEKITTKLLKAGAKPDQIGIITPYEGQRSYLVQYMQFSGSLHTKLYQEVEIASVDAFQGREKDFIILSCVRANEHQGIGFLNDPRRLNVALTRARYGVIIVGNPKALSKQPLWNHLLNYYKEQKVLVEGPLNNLRESLMQFSKPRKLVNTINPGARFMTTAMYDAREAIIPGSVYDRSSQGRPSSMYFQTHDQIGMISAGPSHVAAMNIPIPFNLVMPPMPPPGYFGQANGPAAGRGTPKGKTGRGGRQKNRFGLPGPSQTNLPNSQASQDVASQPFSQGALTQGYISMSQPSQMSQPGLSQPELSQDSYLGDEFKSQIDVALSQDSTYQGERAYQHGGVTGLSQY
notes: UPF1, human, full length; Plasmid named pcDNA3 x FLAG-UPF1 in the methods; also called purified full-length FLAG-UPF1; source: HEK293T, transiently transfected, in lysate
